Reference: US7727960B2, “C5a receptor antagonists” (Jerini AG, priority 2003, dated 2010)
Starred links: 1 amine or outer side, 2 acyl side, 3 side chain; linkers in the order of their positions; H or OH if unused. Positions of bridges follow the written chain, without caps; N, C: chain ends. Non-standard residues stand in square brackets, D forms with d. Residues, ends and D or L forms follow the SMILES beside them. No end group written: not given here. *: point of attachment. 2‑Acetamido‑1‑Methyl‑Glucuronyl = 2-Acetamido-1-methyl-glucuronyl N-terminal group; Phe(4-guanidino) = N=C(N)Nc1ccc(C[C@H](N)C(=O)O)cc1; Ebd = Cys(Et), CCSC[C@H](N[*:1])C(=O)[*:2]; X3 = O=C1CNC(=O)N1[C@@H](Cc1ccccc1)C(=O)*; Phe(4-Me) = Cc1ccc(C[C@H](N)C(=O)O)cc1; 2Nal = N[C@@H](Cc1ccc2ccccc2c1)C(=O)O; His(τ-Me) = Cn1cnc(C[C@H](N)C(=O)O)c1; Acetyl(4-pyridyl) = O=C(Cc1ccncc1)*; Bta = N[C@@H](Cc1csc2ccccc12)C(=O)O; d(hLeu) = CC(C)CC[C@@H](N)C(=O)O; 2Thi = N[C@@H](Cc1cccs1)C(=O)O; Cha = N[C@@H](CC1CCCCC1)C(=O)O; dCha = N[C@H](CC1CCCCC1)C(=O)O; Chg = N[C@H](C(=O)O)C1CCCCC1; hLeu = CC(C)CC[C@H](N)C(=O)O; dNle = CCCC[C@@H](N)C(=O)O; Eag = 2-Propargylglycine; Nle = CCCC[C@H](N)C(=O)O; Orn = NCCC[C@H](N)C(=O)O; Pra = C#CC[C@H](N)C(=O)O; Nva = CCC[C@H](N)C(=O)O

T1: human C5aR (CD88) (Homo sapiens, UniProt P21730)
T1 construct: expressed in transfected cells; host or cells: rat basophilic leukemia cells (RBL)
T1 sequence (P21730 1-350): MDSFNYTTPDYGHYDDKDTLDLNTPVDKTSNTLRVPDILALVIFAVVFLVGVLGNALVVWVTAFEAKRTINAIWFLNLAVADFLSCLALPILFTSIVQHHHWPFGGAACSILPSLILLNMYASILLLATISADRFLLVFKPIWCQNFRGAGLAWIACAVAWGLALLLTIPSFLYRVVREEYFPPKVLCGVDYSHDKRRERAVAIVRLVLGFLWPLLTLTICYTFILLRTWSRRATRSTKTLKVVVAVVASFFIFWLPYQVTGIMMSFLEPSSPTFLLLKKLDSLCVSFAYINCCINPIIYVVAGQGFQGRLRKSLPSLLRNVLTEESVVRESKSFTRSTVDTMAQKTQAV

T2: human C5aR (CD88) (human, UniProt P21730 1-350)
T2 sequence (looked up): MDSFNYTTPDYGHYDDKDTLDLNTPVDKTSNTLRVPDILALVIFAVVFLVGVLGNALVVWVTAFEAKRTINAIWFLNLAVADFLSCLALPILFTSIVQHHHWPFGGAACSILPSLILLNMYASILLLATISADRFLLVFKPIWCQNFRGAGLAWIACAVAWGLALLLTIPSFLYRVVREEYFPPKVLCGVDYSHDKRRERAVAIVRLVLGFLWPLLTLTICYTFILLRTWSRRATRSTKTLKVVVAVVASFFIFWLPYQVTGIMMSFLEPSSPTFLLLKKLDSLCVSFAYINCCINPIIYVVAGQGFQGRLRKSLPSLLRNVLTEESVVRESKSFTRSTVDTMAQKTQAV


These molecules were tested against T1, human C5aR (CD88) (assay: Determination of the IC50 value in an enzyme release assay (functional assay, antagonistic activity)). Settings: not given.
Assay type: cell-based

| Molecule | inhibitory activity (in words) |
| --- | --- |
| Ac-Phe-[Orn-Hyp(CONHCH2COH(OH)CH2OH)-cha-Trp-Phe] | noteworthy inhibitory activity |

Same assay, conditions: antagonistic activity; enzyme release assay in RBL cells expressing human C5aR (CD88); read-out: activity (group)

| Molecule | IC50 [nM] |
| --- | --- |
| NCCC[C@H](NC(=O)[C@H](Cc1ccccc1)N1C(=O)CNC1=O)C(=O)N1CCC[C@H]1C(=O)N[C@H](CC1CCCCC1)C(=O)N[C@@H](Cc1csc2ccccc12)C(=O)N[C@@H](Cc1ccccc1)C(N)=O [Compound 130, (—CO—CH2—NH—CO—)-Phe-Orn-Pro-cha-Bta-Phe-NH2] (X3-[Orn]P[dCha][Bta]F-NH2) | 50 to 200 |
| CC(=O)N[C@@H](C)C(=O)N[C@H]1CCCNC(=O)[C@H](CCCN=C(N)N)NC(=O)[C@H](Cc2c[nH]c3ccccc23)NC(=O)[C@@H](CC2CCCCC2)NC(=O)[C@@H]2CCCN2C1=O [Compound 45] (Ac-A[Orn]P[dCha]WR; lactam 2-C) | > 2000 |

Same assay, conditions: arginine replaced by hydrophobic substitutions

| Molecule | IC50-value compared to compound 40 (in words) |
| --- | --- |
| CSCC[C@@H]1NC(=O)[C@H](Cc2c[nH]c3ccccc23)NC(=O)[C@@H](CC2CCCCC2)NC(=O)[C@@H]2CCCN2C(=O)[C@@H](NC(=O)[C@H](Cc2ccccc2)NC(C)=O)CCCNC1=O [Compound 29, Ac-Phe-[Orn-Pro-cha-Trp-Met]] (Ac-F[Orn]P[dCha]WM; lactam 2-C) | without a significant increase of the IC50-value |
| CC(=O)N[C@@H](Cc1ccccc1)C(=O)N[C@H]1CCCNC(=O)[C@H](CCC(C)C)NC(=O)[C@H](Cc2c[nH]c3ccccc23)NC(=O)[C@@H](CC2CCCCC2)NC(=O)[C@@H]2CCCN2C1=O [Compound 32, Ac-Phe-[Orn-Pro-cha-Trp-Hle]] (Ac-F[Orn]P[dCha]W[hLeu]; lactam 2-C) | without a significant increase of the IC50-value |
| CCC[C@@H]1NC(=O)[C@H](Cc2c[nH]c3ccccc23)NC(=O)[C@@H](CC2CCCCC2)NC(=O)[C@@H]2CCCN2C(=O)[C@@H](NC(=O)[C@H](Cc2ccccc2)NC(C)=O)CCCNC1=O [Compound 31, Ac-Phe-[Orn-Pro-cha-Trp-Nva]] (Ac-F[Orn]P[dCha]W[Nva]; lactam 2-C) | without a significant increase of the IC50-value |
| C#CC[C@@H]1NC(=O)[C@H](Cc2c[nH]c3ccccc23)NC(=O)[C@@H](CC2CCCCC2)NC(=O)[C@@H]2CCCN2C(=O)[C@@H](NC(=O)[C@H](Cc2ccccc2)NC(C)=O)CCCNC1=O [Compound 35, Ac-Phe-[Orn-Pro-cha-Trp-Eag]] (Ac-F[Orn]P[dCha]W[Pra]; lactam 2-C) | without a significant increase of the IC50-value |

Same assay, conditions: noteworthy = IC50 of less than 200 nM in the functional assay

| Molecule | inhibitory activity (in words) |
| --- | --- |
| CSCC[C@@H]1NC(=O)[C@H](Cc2c[nH]c3ccccc23)NC(=O)[C@@H](CC2CCCCC2)NC(=O)[C@@H]2CCCN2C(=O)[C@@H](NC(=O)[C@H](Cc2ccccc2)NC(C)=O)CCCNC1=O [Compound 29, Ac-Phe-[Orn-Pro-cha-Trp-Met]] (Ac-F[Orn]P[dCha]WM; lactam 2-C) | noteworthy inhibitory activity |
| CC(=O)N[C@@H](Cc1ccccc1)C(=O)N[C@H]1CCCNC(=O)[C@H](CCC(C)C)NC(=O)[C@H](Cc2c[nH]c3ccccc23)NC(=O)[C@@H](CC2CCCCC2)NC(=O)[C@@H]2CCCN2C1=O [Compound 32, Ac-Phe-[Orn-Pro-cha-Trp-Hle]] (Ac-F[Orn]P[dCha]W[hLeu]; lactam 2-C) | noteworthy inhibitory activity |
| CC(=O)N[C@@H](Cc1ccccc1)C(=O)N[C@H]1CCCNC(=O)[C@H](Cc2cn(C)cn2)NC(=O)[C@H](Cc2c[nH]c3ccccc23)NC(=O)[C@@H](CC2CCCCC2)NC(=O)[C@@H]2CCCN2C1=O [Compound 20, Ac-Phe-[Orn-Pro-cha-Trp-Ecr]] (Ac-F[Orn]P[dCha]W[His(τ-Me)]; lactam 2-C) | noteworthy inhibitory activity |
| CCC[C@@H]1NC(=O)[C@H](Cc2c[nH]c3ccccc23)NC(=O)[C@@H](CC2CCCCC2)NC(=O)[C@@H]2CCCN2C(=O)[C@@H](NC(=O)[C@H](Cc2ccccc2)NC(C)=O)CCCNC1=O [Compound 31, Ac-Phe-[Orn-Pro-cha-Trp-Nva]] (Ac-F[Orn]P[dCha]W[Nva]; lactam 2-C) | noteworthy inhibitory activity |
| C#CC[C@@H]1NC(=O)[C@H](Cc2c[nH]c3ccccc23)NC(=O)[C@@H](CC2CCCCC2)NC(=O)[C@@H]2CCCN2C(=O)[C@@H](NC(=O)[C@H](Cc2ccccc2)NC(C)=O)CCCNC1=O [Compound 35, Ac-Phe-[Orn-Pro-cha-Trp-Eag]] (Ac-F[Orn]P[dCha]W[Pra]; lactam 2-C) | noteworthy inhibitory activity |
| Ac-Phe-[Orn-Ser-cha-Trp-Phe] | noteworthy inhibitory activity |

These molecules were tested against T2, human C5aR (CD88) (assay: cell-based or functional assay). Settings: not given.

| Molecule | IC50 activity group, enzyme release assay [nM] |
| --- | --- |
| Ac-F[Orn]P[dCha]W[hLeu] (lactam (positions not given here); not fully specified (bridges); printed as Ac-Phe-[Orn-Pro-cha-Trp-Hle]) [Ac-Phe-[Orn-Pro-cha-Trp-Hle]] | ≤ 50 |
| Ac-F[Orn]P[dHch]WF-OH [Ac-Phe-Orn-Pro-hch-Trp-Phe-OH] | ≤ 200 |
| Ac-F[Orn]P[dCha]W[Ebd] (lactam (positions not given here); not fully specified (bridges); printed as Ac-Phe-[Orn-Pro-cha-Trp-Ebd]) [Ac-Phe-[Orn-Pro-cha-Trp-Ebd]] | ≤ 50 |
| Ac-F[Orn]P[dCha]W[Eag] (lactam (positions not given here); not fully specified (bridges); printed as Ac-Phe-[Orn-Pro-cha-Trp-Eag]) [Ac-Phe-[Orn-Pro-cha-Trp-Eag]] | ≤ 10 |
| Ac-F[Orn]P[dCha]W[Phe(4-Me)] (lactam (positions not given here); not fully specified (bridges); printed as Ac-Phe-[Orn-Pro-cha-Trp-Pmf]) [Ac-Phe-[Orn-Pro-cha-Trp-Pmf]] | ≤ 50 |
| Ac-F[Orn]P[dCha]W[2Nal] (lactam (positions not given here); not fully specified (bridges); printed as Ac-Phe-[Orn-Pro-cha-Trp-2Ni]) [Ac-Phe-[Orn-Pro-cha-Trp-2Ni]] | ≤ 200 |
| Ac-F[Orn]P[dCha]W[2Thi] (lactam (positions not given here); not fully specified (bridges); printed as Ac-Phe-[Orn-Pro-cha-Trp-Thi]) [Ac-Phe-[Orn-Pro-cha-Trp-Thi]] | ≤ 50 |
| {2‑Acetamido‑1‑Methyl‑Glucuronyl}-F[Orn]P[dCha]W[Nle] (lactam 2-C) [X-Phe-[Orn-Pro-cha-Trp-Nle]; X = 2-Acetamido-1-Methyl-Glucuronyl] | ≤ 50 |
| Ac-F[Orn]P[dCha]WA (lactam (positions not given here); not fully specified (bridges); printed as Ac-Phe-[Orn-Pro-cha-Trp-Ala]) [Ac-Phe-[Orn-Pro-cha-Trp-Ala]] | > 2000 |
| {Ph‑CH2}-[Orn]P[dCha]W[Nle] (lactam 1-C) [Ph-CH2-[Orn-Pro-cha-Trp-Nle]] | ≤ 50 |
| {Ph‑CH2}-[Orn]P[dCha]WF (lactam 1-C) [Ph-CH2-[Orn-Pro-cha-Trp-Phe]] | ≤ 50 |
| {Ph‑CH(OH)‑CH2‑CO}-[Orn]P[dCha]W[Nle] (lactam 1-C) [Ph-CH(OH)-CH2-CO-[Orn-Pro-cha-Trp-Nle]] | ≤ 50 |
| Ac-F[Orn]P[dCha]WY (lactam (positions not given here); not fully specified (bridges); printed as Ac-Phe-[Orn-Pro-cha-Trp-Tyr]) [Ac-Phe-[Orn-Pro-cha-Trp-Tyr]] | ≤ 50 |
| FXPXWR (not fully specified; Ac-; Orn2; cha4 (D); Arg(CH2CH2)6; cyclic [2-6]) [Ac-Phe-[Orn-Pro-cha-Trp-Arg(CH2CH2)]] | ≤ 2000 |
| Ac-F[Orn]P[dCha]W[Cha] (lactam (positions not given here); not fully specified (bridges); printed as Ac-Phe-[Orn-Pro-cha-Trp-Cha]) [Ac-Phe-[Orn-Pro-cha-Trp-Cha]] | ≤ 200 |
| Ac-F[Orn]P[dCha]W[Chg] (lactam (positions not given here); not fully specified (bridges); printed as Ac-Phe-[Orn-Pro-cha-Trp-Chg]) [Ac-Phe-[Orn-Pro-cha-Trp-Chg]] | ≤ 200 |
| FXPXWX (not fully specified; Ac-; Orn2; cha4 (D); Cit6; cyclic [2-6]) [Ac-Phe-[Orn-Pro-cha-Trp-Cit]] | ≤ 2000 |
| Ac-F[Orn]P[dCha]WL (lactam (positions not given here); not fully specified (bridges); printed as Ac-Phe-[Orn-Pro-cha-Trp-Leu]) [Ac-Phe-[Orn-Pro-cha-Trp-Leu]] | ≤ 200 |
| FXPXWX (not fully specified; Ac-; Orn2; cha4 (D); Har6; cyclic [2-6]) [Ac-Phe-[Orn-Pro-cha-Trp-Har]] | ≤ 2000 |
| Ac-F[Orn]P[dCha]W[dNle] (lactam 2-C (inferred)) [Ac-Phe-[Orn-Pro-cha-Trp-nle]] | ≤ 200 |
| Ac-F[Orn]P[dCha]WF (lactam (positions not given here); not fully specified (bridges); printed as Ac-Phe-[Orn-Pro-cha-Trp-Phe]) [Ac-Phe-[Orn-Pro-cha-Trp-Phe]] | ≤ 50 |
| Ac-F[Orn]P[d(hLeu)]W[Nle] (lactam 2-C (inferred)) [Ac-Phe-[Orn-Pro-hle-Trp-Nle]] | ≤ 50 |
| Ac-F[Orn]P[dCha]W[Phe(4-guanidino)] (lactam (positions not given here); not fully specified (bridges); printed as Ac-Phe-[Orn-Pro-cha-Trp-Guf]) [Ac-Phe-[Orn-Pro-cha-Trp-Guf]] | ≤ 2000 |
| {Acetyl(4-pyridyl)}-F[Orn]P[dCha]W[Nle] (lactam 2-C (inferred)) [Fbi-Phe-[Orn-Pro-cha-Trp-Nle]] | ≤ 200 |
